Experiments:
Settings in all cases: protein: recombinant; tags: N-terminal 6xHis; chain copies: 4; blunt
6xHis-SlmA-T33A = target: T1, 6xHis-SlmA-T33A (Escherichia coli, UniProt P0C093 1-198, T33A); experiment: BLI; 4 uM SlmA; BLI in 1x Pol buffer: 50 mM HEPES-NaOH pH 8.0, 200 mM KCl, 10 mM MgCl2, room temperature; 50 nM biotinylated SBS17 on streptavidin tips
T1 sequence: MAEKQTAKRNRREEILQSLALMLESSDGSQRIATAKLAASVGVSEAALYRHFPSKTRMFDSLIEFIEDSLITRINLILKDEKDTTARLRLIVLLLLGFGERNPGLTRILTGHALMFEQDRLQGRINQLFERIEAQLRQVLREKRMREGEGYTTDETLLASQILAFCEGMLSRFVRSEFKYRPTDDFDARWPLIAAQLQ

6xHis-SlmA-R73D = target: T2, 6xHis-SlmA-R73D (Escherichia coli, UniProt P0C093 1-198, R73D); experiment: BLI; 4 uM SlmA; binds like WT; BLI in 1x Pol buffer: 50 mM HEPES-NaOH pH 8.0, 200 mM KCl, 10 mM MgCl2, room temperature; 50 nM biotinylated SBS17 on streptavidin tips
T2 sequence: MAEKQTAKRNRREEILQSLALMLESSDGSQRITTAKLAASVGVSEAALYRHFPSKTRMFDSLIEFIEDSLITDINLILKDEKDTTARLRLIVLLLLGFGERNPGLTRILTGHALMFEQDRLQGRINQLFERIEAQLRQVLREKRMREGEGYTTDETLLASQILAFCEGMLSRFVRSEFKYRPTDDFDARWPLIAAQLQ

6xHis-SlmA-F65A = target: T3, 6xHis-SlmA-F65A (Escherichia coli, UniProt P0C093 1-198, F65A); experiment: as above
T3 sequence: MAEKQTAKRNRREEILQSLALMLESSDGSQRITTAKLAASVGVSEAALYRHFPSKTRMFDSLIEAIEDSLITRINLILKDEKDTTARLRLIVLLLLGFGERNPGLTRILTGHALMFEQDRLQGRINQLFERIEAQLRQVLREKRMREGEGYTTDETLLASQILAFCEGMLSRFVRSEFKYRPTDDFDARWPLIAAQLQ

6xHis-SlmA WT = target: T4, 6xHis-SlmA WT (Escherichia coli, UniProt P0C093 1-198); experiment: BLI; kon 3.24e4 1/(M*s), koff 2.04e-3 1/s, R2 0.98; BLI in 1x Pol buffer: 50 mM HEPES-NaOH pH 8.0, 200 mM KCl, 10 mM MgCl2, room temperature; 50 nM biotinylated SBS17 on streptavidin tips
T4 sequence: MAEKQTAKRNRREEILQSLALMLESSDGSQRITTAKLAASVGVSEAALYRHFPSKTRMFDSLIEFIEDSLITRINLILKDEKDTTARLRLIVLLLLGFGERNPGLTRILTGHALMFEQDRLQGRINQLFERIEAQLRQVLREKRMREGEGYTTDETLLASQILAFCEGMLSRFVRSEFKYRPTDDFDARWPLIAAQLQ

B1: biotinylated SBS17-30mer (dsDNA)
DNA 1: CAAAAGTAAGTAAATGGTCACTAACGTTGA
DNA 2: TCAACGTTAGTGACCATTTACTTACTTTTG
- binding result (6xHis-SlmA-T33A): no binding
- binding result (6xHis-SlmA-R73D): binds
- binding result (6xHis-SlmA-F65A): binds
- Kd (6xHis-SlmA WT): 62.9 nM
